Values of other authors in PMC3373146.
Like-named read-outs stand apart in the source and are kept apart here.

Experiments:
[1] = biological target: Kv2.1 (UniProt Q14721)
[2] = biological target: Kv2.1 (UniProt Q14721); remark: listed apart in the source
[3] = biological target: KCa2.1 (SK1) (UniProt Q92952)
[4] = biological target: KCa2.2 (SK2) (UniProt Q9H2S1)
[5] = biological target: KCa2.3 (SK3) (UniProt Q9UGI6)
Sequence of KCa2.3 (SK3) (Q9UGI6 whole entry): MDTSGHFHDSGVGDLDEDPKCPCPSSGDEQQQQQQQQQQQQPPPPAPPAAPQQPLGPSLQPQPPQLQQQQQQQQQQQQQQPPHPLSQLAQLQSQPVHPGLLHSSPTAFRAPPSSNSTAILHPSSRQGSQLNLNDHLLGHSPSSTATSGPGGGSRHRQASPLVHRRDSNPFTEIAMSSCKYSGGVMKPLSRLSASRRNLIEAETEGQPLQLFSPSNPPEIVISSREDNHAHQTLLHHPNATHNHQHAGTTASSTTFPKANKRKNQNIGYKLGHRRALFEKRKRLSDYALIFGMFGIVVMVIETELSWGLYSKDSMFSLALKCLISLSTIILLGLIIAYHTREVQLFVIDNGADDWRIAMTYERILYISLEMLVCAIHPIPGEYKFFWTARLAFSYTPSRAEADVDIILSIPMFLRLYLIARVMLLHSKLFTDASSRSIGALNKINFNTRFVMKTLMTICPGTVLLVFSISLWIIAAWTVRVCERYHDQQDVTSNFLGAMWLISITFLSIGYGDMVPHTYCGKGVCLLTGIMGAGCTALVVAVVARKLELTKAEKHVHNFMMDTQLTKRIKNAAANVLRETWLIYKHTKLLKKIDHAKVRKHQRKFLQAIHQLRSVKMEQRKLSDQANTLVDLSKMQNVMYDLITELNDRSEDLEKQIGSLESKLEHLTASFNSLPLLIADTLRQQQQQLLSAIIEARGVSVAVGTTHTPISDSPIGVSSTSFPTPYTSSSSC

Sequence of Kv2.1 (Q14721 whole entry): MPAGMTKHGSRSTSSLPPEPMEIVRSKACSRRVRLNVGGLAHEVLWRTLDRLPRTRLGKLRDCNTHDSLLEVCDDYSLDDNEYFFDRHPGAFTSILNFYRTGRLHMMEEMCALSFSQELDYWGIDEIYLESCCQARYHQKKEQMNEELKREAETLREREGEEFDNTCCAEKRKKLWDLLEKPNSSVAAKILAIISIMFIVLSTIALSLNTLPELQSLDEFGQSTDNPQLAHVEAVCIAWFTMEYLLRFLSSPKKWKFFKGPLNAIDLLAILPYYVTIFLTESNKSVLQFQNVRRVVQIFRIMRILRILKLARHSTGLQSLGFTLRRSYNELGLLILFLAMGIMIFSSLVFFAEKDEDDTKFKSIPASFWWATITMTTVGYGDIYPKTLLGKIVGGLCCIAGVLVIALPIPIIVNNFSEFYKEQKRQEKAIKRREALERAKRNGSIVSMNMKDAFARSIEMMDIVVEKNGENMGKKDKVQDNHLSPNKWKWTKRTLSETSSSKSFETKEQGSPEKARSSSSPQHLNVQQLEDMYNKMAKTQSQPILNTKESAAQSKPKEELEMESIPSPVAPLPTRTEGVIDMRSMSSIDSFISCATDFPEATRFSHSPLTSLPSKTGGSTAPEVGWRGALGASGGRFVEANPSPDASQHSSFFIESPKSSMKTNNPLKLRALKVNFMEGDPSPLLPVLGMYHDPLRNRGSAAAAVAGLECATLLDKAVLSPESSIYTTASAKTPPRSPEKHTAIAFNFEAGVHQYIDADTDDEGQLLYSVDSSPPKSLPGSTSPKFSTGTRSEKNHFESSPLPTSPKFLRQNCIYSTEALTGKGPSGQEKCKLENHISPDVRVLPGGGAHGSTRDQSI
Sequence of KCa2.1 (SK1) (Q92952 whole entry): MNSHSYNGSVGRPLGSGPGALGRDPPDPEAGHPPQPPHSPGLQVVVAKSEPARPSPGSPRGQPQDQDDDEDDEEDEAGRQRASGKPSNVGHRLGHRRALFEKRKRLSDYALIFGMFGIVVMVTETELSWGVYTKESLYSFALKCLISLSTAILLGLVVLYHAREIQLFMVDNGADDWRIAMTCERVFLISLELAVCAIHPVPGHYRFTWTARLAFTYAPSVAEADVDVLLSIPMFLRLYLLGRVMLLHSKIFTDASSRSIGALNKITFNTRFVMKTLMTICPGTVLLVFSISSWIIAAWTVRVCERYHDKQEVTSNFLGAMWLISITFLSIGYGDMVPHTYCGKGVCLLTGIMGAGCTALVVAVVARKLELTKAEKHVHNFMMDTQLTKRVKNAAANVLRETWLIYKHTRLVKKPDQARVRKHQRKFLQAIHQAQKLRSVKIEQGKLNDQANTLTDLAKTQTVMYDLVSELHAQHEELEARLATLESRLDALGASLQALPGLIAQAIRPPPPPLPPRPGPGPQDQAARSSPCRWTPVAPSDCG
Sequence of hanatoxin 2 (P56853 whole entry): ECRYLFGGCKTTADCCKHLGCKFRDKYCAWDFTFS
Sequence of KCa2.2 (SK2) (Q9H2S1 whole entry): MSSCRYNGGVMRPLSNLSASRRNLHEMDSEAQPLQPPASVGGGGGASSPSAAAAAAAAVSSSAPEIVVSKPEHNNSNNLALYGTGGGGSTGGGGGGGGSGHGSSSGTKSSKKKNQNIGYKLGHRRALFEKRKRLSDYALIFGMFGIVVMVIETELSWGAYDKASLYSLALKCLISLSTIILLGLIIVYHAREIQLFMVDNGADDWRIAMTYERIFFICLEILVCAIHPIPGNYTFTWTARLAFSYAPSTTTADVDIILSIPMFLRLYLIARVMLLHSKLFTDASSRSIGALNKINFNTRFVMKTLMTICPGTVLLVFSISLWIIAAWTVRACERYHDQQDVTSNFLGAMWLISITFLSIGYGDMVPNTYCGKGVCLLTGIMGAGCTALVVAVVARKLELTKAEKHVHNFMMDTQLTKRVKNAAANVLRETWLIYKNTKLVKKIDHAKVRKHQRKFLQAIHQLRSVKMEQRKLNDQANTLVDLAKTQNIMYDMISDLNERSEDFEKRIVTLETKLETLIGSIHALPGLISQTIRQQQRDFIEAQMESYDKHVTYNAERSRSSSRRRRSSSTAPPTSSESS
Sequence of hanatoxin 1 (P56852 50-84): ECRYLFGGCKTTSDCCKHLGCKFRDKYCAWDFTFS

For hanatoxin 1 (from UniProt P56852), the Kd [1] is given as 42 nM.
In the case of hanatoxin 2 (from UniProt P56853), the Kd [2] is given as 42 nM.
For apamin (from UniProt P01500), the Kd [3] is listed as 0.39 nM, the Kd [4] is listed as 0.004 nM and the Kd [5] is listed as 0.011 nM.
